This data set deals with BCL11A (Homo sapiens) (UniProt Q9H165). The experiment in a line: EMSA supershift. The following applies: with NF-Y, EMSA with nuclear extracts, 100x molar excess competitors, buffer and temperature not given (refs 25-27). On the technique in general: Mobility shift assays separate free from complexed probe on a gel.
Sequence of UniProt Q9H165 (Q9H165 whole entry): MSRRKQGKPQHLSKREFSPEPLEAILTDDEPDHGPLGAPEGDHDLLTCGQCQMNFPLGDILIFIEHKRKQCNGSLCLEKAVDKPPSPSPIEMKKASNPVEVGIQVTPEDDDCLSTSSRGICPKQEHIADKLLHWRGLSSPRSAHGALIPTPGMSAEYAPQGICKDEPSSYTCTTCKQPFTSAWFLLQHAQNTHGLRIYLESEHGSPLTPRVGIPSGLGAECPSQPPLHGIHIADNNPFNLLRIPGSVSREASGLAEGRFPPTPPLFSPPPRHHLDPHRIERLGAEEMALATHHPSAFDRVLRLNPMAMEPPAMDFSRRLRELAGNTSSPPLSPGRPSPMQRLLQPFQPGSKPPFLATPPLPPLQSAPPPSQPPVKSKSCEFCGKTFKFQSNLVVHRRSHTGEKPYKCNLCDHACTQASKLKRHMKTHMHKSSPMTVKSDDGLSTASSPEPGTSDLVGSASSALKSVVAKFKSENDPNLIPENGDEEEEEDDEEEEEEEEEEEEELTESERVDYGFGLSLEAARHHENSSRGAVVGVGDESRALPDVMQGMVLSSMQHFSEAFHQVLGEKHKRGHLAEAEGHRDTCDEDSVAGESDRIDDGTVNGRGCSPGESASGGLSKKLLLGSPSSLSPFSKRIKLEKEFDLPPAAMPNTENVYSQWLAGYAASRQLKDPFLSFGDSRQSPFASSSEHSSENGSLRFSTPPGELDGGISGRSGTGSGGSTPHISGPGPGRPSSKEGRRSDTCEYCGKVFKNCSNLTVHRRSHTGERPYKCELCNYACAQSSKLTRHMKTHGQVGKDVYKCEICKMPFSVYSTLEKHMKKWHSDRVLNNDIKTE

Take “GCCTTGCCTTGACCAATAGCCTTGACAAGGCAAACTTGACCAATAGTCTTAGAGTATCCAGTGAGGCCAGGGGCCGGCGGCTGGCTAGGGATGA (double strand) [Wt proximal gamma-globin promoter probe (94 bases)]”: the binding signal (% of NF-Y band supershifted) by setting is: (D14 extract) 40; (K562 extract) 30; (fetal liver extract) 30.

The values above are taken from paper PMC3468502.
